According to the supplement of paper PMC11246515:
± gives the standard deviation of the averaged measurements.

Assay: total protein half-life in vivo (active degradation + dilution); higher = more stable protein
[1] = wild type E. coli NCM3722, growth: P-lim chemostat, doubling time 6 h
[2] = wild type E. coli NCM3722, growth: P-lim chemostat, doubling time 12 h
[3] = E. coli NCM3722 delta-clpP delta-lon delta-hslV, growth: N-lim chemostat, doubling time 6 h
[4] = E. coli NCM3722 delta-clpP, growth: N-lim chemostat, doubling time 6 h
[5] = E. coli NCM3722 delta-lon, growth: N-lim chemostat, doubling time 6 h
[6] = E. coli NCM3722 delta-smpB, growth: N-lim chemostat, doubling time 6 h
[7] = wild type E. coli NCM3722, growth: C-lim chemostat, doubling time 3 h
[8] = wild type E. coli NCM3722, growth: C-lim chemostat, doubling time 6 h
[9] = wild type E. coli NCM3722, growth: C-lim chemostat, doubling time 12 h
[10] = wild type E. coli NCM3722, growth: N-lim chemostat, doubling time 6 h
[11] = wild type E. coli NCM3722, growth: N-lim chemostat, doubling time 12 h
[12] = E. coli NCM3722 delta-hslV, growth: N-lim chemostat, doubling time 6 h

Sequence	total protein half-life in vivo [1] [h]	total protein half-life in vivo [2] [h]	total protein half-life in vivo [3] [h]	total protein half-life in vivo [4] [h]	total protein half-life in vivo [5] [h]	total protein half-life in vivo [6] [h]	total protein half-life in vivo [7] [h]	total protein half-life in vivo [8] [h]	total protein half-life in vivo [9] [h]	total protein half-life in vivo [10] [h]	total protein half-life in vivo [11] [h]	total protein half-life in vivo [12] [h]
MHADTATRQHWMSVLAHSQPAELAARLNALNITADYEVIRAAETGLVQIQARMGGTGERFFAGDATLTRAAVRLTDGTLGYSWVQGRDKQHAERCALIDALMQQSRHFQNLSETLIAPLDADRMARIAARQAEVNASRVDFFTMVRGDNA	1.11 ± 1.1	1.64 ± 0.035										
MHENQQPQTEAFELSAAEREAIEHEMHHYEDPRAASIEALKIVQKQRGWVPDGAIHAIADVLGIPASDVEGVATFYSQIFRQPVGRHVIRYCDSVVCHINGYQGIQAALEKKLNIKPGQTTFDGRFTLLPTCCLGNCDKGPNMMIDEDTHAHLTPEAIPELLERYK [P0AFD1]	4.85 ± 0.61	11 ± 0.14	5.62 ± 0.92	5.62 ± 0.45	5.97 ± 0.51	6.57 ± 0.34	2.65 ± 0.54	4.79 ± 0.22	8.87 ± 1.4	5.04 ± 0.18	10.3 ± 0.36	
MHKAILNSDLIATKAGDVTVYNYDGETREYISTSNEYLAVGVGIPACSCLDAPGTHKAGYAICRSADFNSWEYVPDHRGETVYSTKTGESKEIKAPGDYPENTTTIAPLSPYDKWDGEKWVTDTEAQHSAAVDAAEAQRQSLIDAAMASISLIQLKLQAGRKLTQAETTRLNAVLDYIDAVTATDTSTAPDVIWPELPEA				2.37	1.83	2.04 ± 0.18			3.87	3.06	3.07 ± 0.66	
MHLITQKALKDAAEKYPQHKTELVALGNTIAKGYFKKPESLKAVFPSLDNFKYLDKHYVFNVGGNELRVVAMVFFESQKCYIREVMTHKEYDFFTAVHRTKGKK	6.72	10.1 ± 0.64										
MHLSTHPTSYPTRYQEIAAKLEQELRQHYRCGDYLPAEQQLAARFEVNRHTLRRAIDQLVEKGWVQRRQGVGVLVLMRPFDYPLNAQARFSQNLLDQGSHPTSEKLLSVLRPASGHVADALGITEGENVIHLRTLRRVNGVALCLIDHYFADLTLWPTLQRFDSGSLHDFLREQTGIALRRSQTRISARRAQAKECQRLEIPNMSPLLCVRTLNHRDGESSPAEYSVSLTRADMIEFTMEH	0.458 ± 0.023	1.54 ± 0.86						6.73				
MHNDKDLSTWQTFRRLWPTIAPFKAGLIVAGVALILNAASDTFMLSLLKPLLDDGFGKTDRSVLVWMPLVVIGLMILRGITSYVSSYCISWVSGKVVMTMRRRLFGHMMGMPVSFFDKQSTGTLLSRITYDSEQVASSSSGALITVVREGASIIGLFIMMFYYSWQLSIILIVLAPIVSIAIRVVSKRFRNISKNMQNTMGQVTTSAEQMLKGHKEVLIFGGQEVETKRFDKVSNRMRLQGMKMVSASSISDPIIQLIASLALAFVLYAASFPSVMDSLTAGTITVVFSSMIALMRPLKSLTNVNAQFQRGMAACQTLFTILDSEQEKDEGKRVIERATGDVEFRNVTFTYPGRDVPALRNINLKIPAGKTVALVGRSGSGKSTIASLITRFYDIDEGEILMDGHDLREYTLASLRNQVALVSQNVHLFNDTVANNIAYARTEQYSREQIEEAARMAYAMDFINKMDNGLDTVIGENGVLLSGGQRQRIAIARALLRDSPILILDEATSALDTESERAIQAALDELQKNRTSLVIAHRLSTIEKADEIVVVEDGVIVERGTHNDLLEHRGVYAQLHKMQFGQ	5.9 ± 0.39	11.3 ± 0.23	5.89 ± 0.51	5.99 ± 0.27	6.51 ± 0.63	6.04 ± 0.25	3.38 ± 0.053	5.63 ± 0.13	11.4 ± 3	6.15 ± 0.19		6.35 ± 0.47
MHPRFQTAFAQLADNLQSALEPILADKYFPALLTGEQVSSLKSATGLDEDALAFALLPLAAACARTPLSNFNVGAIARGVSGTWYFGANMEFIGATMQQTVHAEQSAISHAWLSGEKALAAITVNYTPCGHCRQFMNELNSGLDLRIHLPGREAHALRDYLPDAFGPKDLEIKTLLMDEQDHGYALTGDALSQAAIAAANRSHMPYSKSPSGVALECKDGRIFSGSYAENAAFNPTLPPLQGALILLNLKGYDYPDIQRAVLAEKADAPLIQWDATSATLKALGCHSIDRVLLA [P0ABF6]	5.88 ± 0.059	11.7 ± 0.35	5.28 ± 0.35	5.6 ± 0.071	6.28 ± 0.78	4.89 ± 0.18		6.09 ± 0.4	10.7 ± 0.78	5.04 ± 0.077	8.624 ± 0.078	6 ± 1.1
MHPTGPHLGPDVLFRESNMKVTLTFNEQRRAAYRQQGLWGDASLADYWQQTARAMPDKIAVVDNHGASYTYSALDHAASCLANWMLAKGIESGDRIAFQLPGWCEFTVIYLACLKIGAVSVPLLPSWREAELVWVLNKCQAKMFFAPTLFKQTRPVDLILPLQNQLPQLQQIVGVDKLAPATSSLSLSQIIADNTSLTTAITTHGDELAAVLFTSGTEGLPKGVMLTHNNILASERAYCARLNLTWQDVFMMPAPLGHATGFLHGVTAPFLIGARSVLLDIFTPDACLALLEQQRCTCMLGATPFVYDLLNVLEKQPADLSALRFFLCGGTTIPKKVARECQQRGIKLLSVYGSTESSPHAVVNLDDPLSRFMHTDGYAAAGVEIKVVDDARKTLPPGCEGEEASRGPNVFMGYFDEPELTARALDEEGWYYSGDLCRMDEAGYIKITGRKKDIIVRGGENISSREVEDILLQHPKIHDACVVAMSDERLGERSCAYVVLKAPHHSLSLEEVVAFFSRKRVAKYKYPEHIVVIEKLPRTTSGKIQKFLLRKDIMRRLTQDVCEEIE			7.05									
MHQSGSVSLCRSAISVLVATALYSPIALASTVEYGETVDGVVLEKDIQLVYGTANNTKINPGGEQHIKEFGVSNNTEINGGYQYIEMNGAAEYSVLNDGYQIVQMGGAANQTTLNNGVLQVYGAANDTTIKGGRLIVEKDGGAVFVAIEKGGLLEVKEGGFAFAVDQKAGGAIKTTTRAMEVFGTNRLGQFDIKNGIANNMLLENGGSLRVEENDFAYNTTVDSGGLLEVMDGGTVTGVDKKAGGKLIVSTNALEVSGPNSKGQFSIKDGVSKNYELDDGSGLIVMEDTQAIDTILDKHATMQSLGKDTGTKVQANAVYDLGRSYQNGSITYSSKAISENMVINNGRANVWAGTMVNVSVRGNDGILEVMKPQINYAPAMLVGKVVVSEGASFRTHGAVDTSKADVSLENSVWTIIADITTTNQNTLLNLANLAMSDANVIMMDEPVTRSSVTASAENFITLTTNTLSGNGNFYMRTDMANHQSDQLNVTGQATGDFKIFVTDTGASPAAGDSLTLVTTGGGDAAFTLGNAGGVVDIGTYEYTLLDNGNHSWSLAENRAQITPSTTDVLNMAAAQPLVFDAELDTVRERLGSVKGVSYDTAMWSSAINTRNNVTTDAGAGFEQTLTGLTLGIDSRFSREESSTIRGLIFGYSHSDIGFDRGGKGNIDSYTLGAYAGWEHQNGAYVDGVVKVDRFANTIHGKMSNGATAFGDYNSNGAGAHVESGFRWVDGLWSVRPYLAFTGFTTDGQDYTLSNGMRADVGNTRILRAEAGTAVSYHMDLQNGTTLEPWLKAAVRQEYADSNQVKVNDDGKFNNDVAGTSGVYQAGIRSSFTPTLSGHLSVSYGNGAGVESPWNTQAGVVWTF			5.12									
MHQVVCATTNPAKIQAILQAFHEIFGEGSCHIASVAVESGVPEQPFGSEETRAGARNRVANARRLLPEADFWVAIEAGIDGDSTFSWVVIENASQRGEARSATLPLPAVILEKVREGEALGPVMSRYTGIDEIGRKEGAIGVFTAGKLTRASVYHQAVILALSPFHNAVY	5.38 ± 0.72	10.9 ± 2	4.71 ± 0.46	3.828 ± 0.038	4.01 ± 0.27	3.57 ± 0.16	2.81 ± 0.067	5.02 ± 0.2	8.17 ± 0.45	3.92	5.34 ± 0.057	3.608 ± 0.012
MHRILAEKSVNITELRKNPAKYFIDQPVAVLSNNRPAGYLLSASAFEALMDMLAEQEEKKPIKARFRPSAARLEEITRRAEQYLNDMTDDDFNDFKE		4.58	6.12 ± 0.86	3.91								
MHSTEVQAKPLFSWKALGWALLYFWFFSTLLQAIIYISGYSGTNGIRDSLLFSSLWLIPVFLFPKRIKIIAAVIGVVLWAASLAALCYYVIYGQEFSQSVLFVMFETNTNEASEYLSQYFSLKIVLIALAYTAVAVLLWTRLRPVYIPKPWRYVVSFALLYGLILHPIAMNTFIKNKPFEKTLDNLASRMEPAAPWQFLTGYYQYRQQLNSLTKLLNENNALPPLANFKDESGNEPRTLVLVIGESTQRGRMSLYGYPRETTPELDALHKTDPNLTVFNNVVTSRPYTIEILQQALTFANEKNPDLYLTQPSLMNMMKQAGYKTFWITNQQTMTARNTMLTVFSRQTDKQYYMNQQRTQSAREYDTNVLKPFQEVLNDPAPKKLIIVHLLGTHIKYKYRYPENQGKFDGNTDHVPPGLNAEELESYNDYDNANLYNDHVVASLIKDFKAANPNGFLVYFSDHGEEVYDTPPHKTQGRNEDNPTRHMYTIPFLLWTSEKWQATHPRDFSQDVDRKYSLAELIHTWSDLAGLSYDGYDPTRSVVNPQFKETTRWIGNPYKKNALIDYDTLPYGDQVGNQ [P0CB39]	6.4 ± 0.18	13.1 ± 0.49	6.57 ± 0.15	7 ± 0.21	6.52 ± 1.3	6.49 ± 0.29	3.504 ± 0.028	6.41 ± 0.11	13 ± 0.88	6.03 ± 0.069	13 ± 0.74	
